Results: patent US20050100554A1 (published 2005)

What was measured:
[1] = molecular target: T1, tripartite motif-containing 29 (human, UniProt Q14134 1-588); test: Y2H; INT ID 404
T1 construct: also called TRIM29; cbe_3833533
T1 sequence: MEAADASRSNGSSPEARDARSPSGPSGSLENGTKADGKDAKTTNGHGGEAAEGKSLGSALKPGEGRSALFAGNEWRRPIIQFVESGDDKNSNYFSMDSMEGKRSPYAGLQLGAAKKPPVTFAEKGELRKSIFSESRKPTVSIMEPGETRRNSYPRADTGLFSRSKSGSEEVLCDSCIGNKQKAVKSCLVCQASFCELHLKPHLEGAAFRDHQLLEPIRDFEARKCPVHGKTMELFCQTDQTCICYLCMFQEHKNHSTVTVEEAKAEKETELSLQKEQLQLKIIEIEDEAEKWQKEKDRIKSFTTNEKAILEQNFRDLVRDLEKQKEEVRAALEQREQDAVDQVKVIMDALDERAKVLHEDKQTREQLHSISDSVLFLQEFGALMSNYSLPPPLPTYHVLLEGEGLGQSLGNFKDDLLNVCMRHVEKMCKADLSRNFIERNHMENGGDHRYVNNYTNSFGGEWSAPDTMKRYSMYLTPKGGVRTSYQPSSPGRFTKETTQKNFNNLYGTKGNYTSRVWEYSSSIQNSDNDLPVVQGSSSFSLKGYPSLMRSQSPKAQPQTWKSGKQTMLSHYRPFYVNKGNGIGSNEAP

[2] = molecular target: T2, Prey1207 (human, UniProt Q6PI78 63-240); test: Y2H; INT ID 409
T2 construct: also called LOC157378; hypothetical protein BC017881
T2 sequence: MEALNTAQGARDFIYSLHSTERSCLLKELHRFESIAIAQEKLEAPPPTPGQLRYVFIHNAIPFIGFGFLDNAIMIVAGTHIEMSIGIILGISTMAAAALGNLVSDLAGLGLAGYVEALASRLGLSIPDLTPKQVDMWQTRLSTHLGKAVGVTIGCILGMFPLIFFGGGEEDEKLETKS

[3] = molecular target: T3, kinesin-associated protein 3 (human, UniProt Q92845 1-792); test: Y2H; INT ID 406
T3 construct: also called KIFAP3; cbe_4138433

[4] = molecular target: T4, CKM (human, UniProt P06732 1-381); test: Y2H; INT ID 403
T4 construct: also called MARK4

[5] = molecular target: T5, hypothetical protein FLJ22729 (human, UniProt Q96QE5 203-360); test: Y2H; INT ID 398
T5 construct: also called cbe_1807361
T5 sequence: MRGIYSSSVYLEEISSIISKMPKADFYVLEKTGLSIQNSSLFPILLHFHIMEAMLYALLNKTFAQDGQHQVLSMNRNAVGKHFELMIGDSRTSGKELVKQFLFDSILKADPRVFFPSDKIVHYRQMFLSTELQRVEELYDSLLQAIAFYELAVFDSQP

[6] = molecular target: T6, Prey2313 (human, UniProt Q8WV44 21-380); test: Y2H; INT ID 399
T6 construct: also called Homo sapiens, clone IMAGE: 3625550, mRNA, partial cds; cbe_2685998
T6 sequence: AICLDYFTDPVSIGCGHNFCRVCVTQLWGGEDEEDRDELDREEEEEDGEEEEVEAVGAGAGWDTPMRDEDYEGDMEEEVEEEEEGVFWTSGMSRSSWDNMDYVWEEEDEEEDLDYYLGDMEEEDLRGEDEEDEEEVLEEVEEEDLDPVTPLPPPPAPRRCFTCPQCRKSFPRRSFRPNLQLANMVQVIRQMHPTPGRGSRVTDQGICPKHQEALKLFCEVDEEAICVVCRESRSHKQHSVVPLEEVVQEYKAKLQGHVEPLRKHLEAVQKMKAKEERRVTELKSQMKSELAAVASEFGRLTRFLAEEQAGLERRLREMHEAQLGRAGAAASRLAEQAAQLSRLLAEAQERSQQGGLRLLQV

[7] = molecular target: the molecule itself; test: Y2H; INT ID 393

Measured: binding result

T4 sequence (P06732 whole entry): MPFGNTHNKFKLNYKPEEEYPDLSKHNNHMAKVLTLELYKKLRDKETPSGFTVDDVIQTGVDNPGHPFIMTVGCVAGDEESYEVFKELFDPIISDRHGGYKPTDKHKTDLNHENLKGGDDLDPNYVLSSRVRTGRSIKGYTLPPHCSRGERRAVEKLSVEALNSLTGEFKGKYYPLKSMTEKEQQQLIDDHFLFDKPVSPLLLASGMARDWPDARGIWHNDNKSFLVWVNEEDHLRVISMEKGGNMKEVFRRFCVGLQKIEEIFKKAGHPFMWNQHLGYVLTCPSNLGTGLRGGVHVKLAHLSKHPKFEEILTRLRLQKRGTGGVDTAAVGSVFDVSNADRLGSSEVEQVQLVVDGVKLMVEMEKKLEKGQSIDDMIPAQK
T3 sequence (Q92845 whole entry): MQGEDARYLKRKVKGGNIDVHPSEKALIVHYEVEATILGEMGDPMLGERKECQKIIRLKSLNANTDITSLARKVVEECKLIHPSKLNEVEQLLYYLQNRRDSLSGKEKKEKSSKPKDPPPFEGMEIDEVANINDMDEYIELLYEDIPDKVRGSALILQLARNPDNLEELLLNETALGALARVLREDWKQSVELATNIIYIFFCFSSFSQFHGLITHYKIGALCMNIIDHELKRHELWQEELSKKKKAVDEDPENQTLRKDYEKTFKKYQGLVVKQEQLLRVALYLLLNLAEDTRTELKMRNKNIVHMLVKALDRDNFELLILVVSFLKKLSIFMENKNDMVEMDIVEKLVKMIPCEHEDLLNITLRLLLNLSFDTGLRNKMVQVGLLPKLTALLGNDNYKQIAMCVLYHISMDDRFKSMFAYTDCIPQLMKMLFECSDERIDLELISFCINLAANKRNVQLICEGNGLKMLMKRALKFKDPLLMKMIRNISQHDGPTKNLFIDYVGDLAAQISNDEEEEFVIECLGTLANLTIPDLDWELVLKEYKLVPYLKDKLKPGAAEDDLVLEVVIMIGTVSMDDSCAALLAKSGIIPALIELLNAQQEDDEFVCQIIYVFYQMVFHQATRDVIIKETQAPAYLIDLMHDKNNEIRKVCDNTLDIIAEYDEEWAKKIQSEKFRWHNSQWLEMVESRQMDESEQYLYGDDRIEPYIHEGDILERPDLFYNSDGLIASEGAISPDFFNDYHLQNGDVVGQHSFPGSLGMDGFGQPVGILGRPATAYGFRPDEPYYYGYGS

B1: Human Papillomavirus 1a E1-E4 (other)
chain: MADNKAPQGLLGLLQYTPTTQPYPRVTPPSNRRPSTTPNSQDRGRPRRSDKDSRKHLYADGLTDGEDPEVPEVEDEEKENQRPLGHPDLSLLRETLEVYTQRLKRDILQDLDDFCRKLGIHPWSV
notes: also called HPV 1a E1-E4; cbe_251740
binds: all assays above
